Publication PMC11315185 (Heliyon, 2024)

B1: Arabidopsis PUX4 (natural protein, Arabidopsis thaliana, UniProt Q8RWU7 1-303, looked up)
chain: MSSKDKKPSKPSSSRGGIRTLSDLNRRSGPDSDSDSDGPQEYYTGGEKSGMLVQDPSKKDDVDEIFNQARQLGAVEGPLEPPPSSRSFTGTGRLLSGENVPTGNQQPEPVVHNIVFWSNGFTIDDGPLRKLDDPENASFLESIRKSECPKELEPADRRAPVHVNLMRKEEKCPERQKRRVSFQGVGRTLGGSNEGSGSSSPVAPDSAPIPIQTEPAPSQSLVIDETVPTTSIQLRLADGTRLVAKFNHHHTVNDIRGFIDSSRPGASLNYQLQTMGFPPKPLTDLTQTIEEAGLANSVVLQKF
B2: Arabidopsis PUX3 (natural protein, Arabidopsis thaliana, UniProt Q9SUG6 1-302, looked up)
chain: MSSKDKKLSKPTSGRTGGIRTLSDLNRRSEPDSDSDSDGPQEYFTGGEKSGMLVQDPTKEPKHDDVDEIFNQARQLGAVEGPLEHPSSSRSFTGTGRLLSGESVPTALQQPEPVIHNIIFWSNGFTVDDGPLRKLDDPENASFLDSIRKSECPKELEPVDKRAPVHVNLMRRDEKCPEKEKLKVSFQGVGRTLGGASSSTASSQSNLTDVAAVQSPLQSLVVDETLPSTSIQLRLADGTRMVAKFNNHHTVNDIRGFIEFSRPGNPNNYTLQVMGFPPKPLTDPSQTIEQAGLASSVVIQKF
B3: P-NAD5_(SHP-UBX) (P-NAD5 with helix1 and the SEP domain deleted) (other)
chain: QVQLVESGGALVQPGGSLRLSCAASGFPVNRYSMRWYRQAPGKEREWVAGMSSAGDRSSYEDSVKGRFTISRDDARNTVYLQMNSLKPEDTAVYYCNVNVGFEYWGQGTQVTVSSEPPKPKNPFQGVGRTLGASGSGSSSAPQASSAPMNVAPAPSRGLVVDPAAPTTSIQLRLADGTRLVSRFNNHHTVRDVRGFIDASRPGGSKEYQLLTMGFPPKQLTELDQTIEQAGIANAVVIQKF

These binders were tested against CDC48A-ND1 (a CDC48A construct containing the N and first ATPase domains) (Arabidopsis thaliana, UniProt P54609 1-484) (assay: ITC).
CDC48A-ND1 (a CDC48A construct containing the N and first ATPase domains), sequence (P54609 1-484): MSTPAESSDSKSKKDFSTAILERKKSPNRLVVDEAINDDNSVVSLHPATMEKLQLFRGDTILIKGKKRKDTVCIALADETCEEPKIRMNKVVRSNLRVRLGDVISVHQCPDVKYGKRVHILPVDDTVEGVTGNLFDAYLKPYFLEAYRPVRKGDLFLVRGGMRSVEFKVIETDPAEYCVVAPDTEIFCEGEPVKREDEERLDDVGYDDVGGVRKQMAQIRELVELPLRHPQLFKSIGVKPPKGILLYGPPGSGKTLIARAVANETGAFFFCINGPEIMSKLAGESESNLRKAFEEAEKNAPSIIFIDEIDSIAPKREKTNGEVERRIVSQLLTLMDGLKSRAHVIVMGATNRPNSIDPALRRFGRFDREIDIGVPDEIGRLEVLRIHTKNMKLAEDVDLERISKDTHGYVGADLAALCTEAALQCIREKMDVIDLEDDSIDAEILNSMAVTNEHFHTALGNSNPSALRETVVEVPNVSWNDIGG
B1 was tested, and the Kd was 2.7 ± 0.9 µM and the “stoichiometry N” value was about 0.5. In the case of B2, the Kd is reported as 5.6 ± 1.6 µM and the “stoichiometry N” value is reported as about 0.5. For B3, the Kd was 12.3 ± 3.7 µM and the “stoichiometry N” value was 1.
